Source: article PMC6978801, “Structural Basis of Teneurin-Latrophilin Interaction in Repulsive Guidance of Migrating Neurons” (Cell, 2020)
Blank lines part the entries; values can stand above or below the molecule they belong to.

How the values were obtained:
[1] = molecular target: Ten2 on K-562 cells (UniProt Q9DER5); assay: K-562 cell aggregation assay; settings: n = 3; parent: est. 56; read off a plot
[2] = molecular target: FLRT2 on K-562 cells (UniProt Q8BLU0); assay: K-562 cell aggregation assay; settings: n = 3; parent: est. 47; read off a plot
[3] = molecular target: Lphn1 on K-562 cells (UniProt Q80TR1); assay: K-562 cell aggregation assay; settings: n = 3; parent: est. 56; read off a plot
[4] = molecular target: murine Lphn2 (ecto) (UniProt Q8JZZ7); assay: cell-based binding assay (immunofluorescence, HEK293 cells); settings: n = 12; surface chicken Ten2LT, soluble His-tagged murine Lphn2 (ecto); read off a plot
[5] = molecular target: murine Lphn1 (ecto); assay: as above; settings: n = 12; surface chicken Ten2LT, soluble His-tagged murine Lphn1 (ecto); read off a plot
[6] = molecular target: murine Latrophilin 1 ectodomain (mLphn1 ecto) (mouse) (UniProt Q80TR1); assay: SPR; Biacore T200, equilibrium binding at 25 °C, PBS + 0.005% polysorbate 20 pH 7.5; Latrophilin constructs biotinylated at a C-terminal Avi-tag and coupled to a streptavidin-coated CM5 chip (670-730 RU ecto, 220 RU Lec-Olf); Ten2 ectodomains injected; apparent KD from a 1:1 Langmuir fit, analyte concentration calculated as monomer; Teneurin is dimeric, values indicative only
[7] = molecular target: murine Latrophilin 2 ectodomain (mLphn2 ecto) (mouse) (UniProt Q8JZZ7); assay: as above
[8] = molecular target: murine Latrophilin 3 ectodomain (mLphn3 ecto) (mouse) (UniProt Q80TS3); assay: as above
[9] = molecular target: mouse Teneurin 2 protein, soluble (UniProt Q9WTS5); assay: cell-based binding assay (immunofluorescence, HEK293 cells); settings: n = 12; surface murine Lphn1TL, soluble His-tagged murine Ten2 (ecto); parent: est. 27; read off a plot
[10] = molecular target: chicken Ten2 ectodomain, soluble (UniProt Q9DER5); assay: as above; settings: n = 12, parent: est. 58, read off a plot
[11] = molecular target: T1, chicken Teneurin 2 ectodomain (gTen2 ecto) (chicken, UniProt Q9DER5 429-2802); assay: SPR; Biacore T200, equilibrium binding at 25 °C, PBS + 0.005% polysorbate 20 pH 7.5; Latrophilin constructs biotinylated at a C-terminal Avi-tag and coupled to a streptavidin-coated CM5 chip (670-730 RU ecto, 220 RU Lec-Olf); Ten2 ectodomains injected; apparent KD from a 1:1 Langmuir fit, analyte concentration calculated as monomer; Teneurin is dimeric, values indicative only; settings: both partners purified
T1 construct: Teneurin-2 (Ten2), chicken (Gallus gallus), soluble ectodomain ('ecto'); analyte concentration was calculated as monomer; also called chicken Ten2 (ecto); source: HEK293 cells, purified (HisTrap, Superdex200 size exclusion)

[12] = molecular target: T2, murine Teneurin 2 ectodomain (mTen2 ecto) (mouse, UniProt Q9WTS5 401-2764); assay: as above; settings: both partners purified
T2 construct: Teneurin-2 (Ten2), mouse, soluble ectodomain ('ecto'); analyte concentration was calculated as monomer; also called mouse Ten2 (ecto); mouse Teneurin 2 protein; source: HEK293 cells, purified (HisTrap, Superdex200 size exclusion)

Chain of murine Latrophilin 2 ectodomain (mLphn2 ecto) (mouse) (Q8JZZ7 26-1487): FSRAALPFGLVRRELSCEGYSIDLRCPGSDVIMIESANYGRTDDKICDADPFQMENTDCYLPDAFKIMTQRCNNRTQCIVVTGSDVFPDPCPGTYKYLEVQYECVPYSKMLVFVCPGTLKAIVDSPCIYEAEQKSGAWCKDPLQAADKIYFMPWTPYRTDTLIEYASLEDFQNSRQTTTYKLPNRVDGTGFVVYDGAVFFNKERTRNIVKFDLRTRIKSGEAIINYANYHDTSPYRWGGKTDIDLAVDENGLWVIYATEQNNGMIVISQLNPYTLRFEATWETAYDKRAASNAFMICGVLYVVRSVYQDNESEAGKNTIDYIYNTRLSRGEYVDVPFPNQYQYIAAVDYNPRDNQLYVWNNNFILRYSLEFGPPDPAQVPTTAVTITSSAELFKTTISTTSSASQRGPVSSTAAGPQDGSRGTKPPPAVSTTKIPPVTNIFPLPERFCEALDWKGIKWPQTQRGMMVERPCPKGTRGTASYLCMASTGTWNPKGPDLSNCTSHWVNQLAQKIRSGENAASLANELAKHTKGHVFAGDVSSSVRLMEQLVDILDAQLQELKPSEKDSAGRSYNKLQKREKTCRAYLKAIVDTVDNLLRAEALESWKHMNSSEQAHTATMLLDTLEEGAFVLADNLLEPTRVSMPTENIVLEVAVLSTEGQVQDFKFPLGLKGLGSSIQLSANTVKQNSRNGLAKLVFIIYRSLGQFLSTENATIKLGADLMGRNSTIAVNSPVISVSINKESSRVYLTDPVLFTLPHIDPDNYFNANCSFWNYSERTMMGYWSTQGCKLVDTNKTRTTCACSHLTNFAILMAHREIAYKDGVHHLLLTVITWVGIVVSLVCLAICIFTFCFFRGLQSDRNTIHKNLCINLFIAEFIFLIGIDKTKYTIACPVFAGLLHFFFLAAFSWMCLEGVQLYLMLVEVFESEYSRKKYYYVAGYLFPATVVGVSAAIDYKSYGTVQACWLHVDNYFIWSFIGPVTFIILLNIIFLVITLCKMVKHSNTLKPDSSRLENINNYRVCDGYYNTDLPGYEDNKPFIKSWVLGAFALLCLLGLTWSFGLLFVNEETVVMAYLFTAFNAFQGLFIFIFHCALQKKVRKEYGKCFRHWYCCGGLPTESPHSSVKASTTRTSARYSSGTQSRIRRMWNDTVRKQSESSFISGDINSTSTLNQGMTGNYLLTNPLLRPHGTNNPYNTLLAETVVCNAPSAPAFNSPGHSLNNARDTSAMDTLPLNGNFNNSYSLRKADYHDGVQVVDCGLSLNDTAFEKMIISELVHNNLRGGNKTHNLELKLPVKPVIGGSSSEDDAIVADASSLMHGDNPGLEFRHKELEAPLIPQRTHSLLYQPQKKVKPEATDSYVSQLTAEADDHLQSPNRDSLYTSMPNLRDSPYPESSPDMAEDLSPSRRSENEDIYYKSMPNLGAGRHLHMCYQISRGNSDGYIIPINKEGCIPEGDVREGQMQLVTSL
Chain of murine Latrophilin 3 ectodomain (mLphn3 ecto) (mouse) (Q80TS3 20-1537): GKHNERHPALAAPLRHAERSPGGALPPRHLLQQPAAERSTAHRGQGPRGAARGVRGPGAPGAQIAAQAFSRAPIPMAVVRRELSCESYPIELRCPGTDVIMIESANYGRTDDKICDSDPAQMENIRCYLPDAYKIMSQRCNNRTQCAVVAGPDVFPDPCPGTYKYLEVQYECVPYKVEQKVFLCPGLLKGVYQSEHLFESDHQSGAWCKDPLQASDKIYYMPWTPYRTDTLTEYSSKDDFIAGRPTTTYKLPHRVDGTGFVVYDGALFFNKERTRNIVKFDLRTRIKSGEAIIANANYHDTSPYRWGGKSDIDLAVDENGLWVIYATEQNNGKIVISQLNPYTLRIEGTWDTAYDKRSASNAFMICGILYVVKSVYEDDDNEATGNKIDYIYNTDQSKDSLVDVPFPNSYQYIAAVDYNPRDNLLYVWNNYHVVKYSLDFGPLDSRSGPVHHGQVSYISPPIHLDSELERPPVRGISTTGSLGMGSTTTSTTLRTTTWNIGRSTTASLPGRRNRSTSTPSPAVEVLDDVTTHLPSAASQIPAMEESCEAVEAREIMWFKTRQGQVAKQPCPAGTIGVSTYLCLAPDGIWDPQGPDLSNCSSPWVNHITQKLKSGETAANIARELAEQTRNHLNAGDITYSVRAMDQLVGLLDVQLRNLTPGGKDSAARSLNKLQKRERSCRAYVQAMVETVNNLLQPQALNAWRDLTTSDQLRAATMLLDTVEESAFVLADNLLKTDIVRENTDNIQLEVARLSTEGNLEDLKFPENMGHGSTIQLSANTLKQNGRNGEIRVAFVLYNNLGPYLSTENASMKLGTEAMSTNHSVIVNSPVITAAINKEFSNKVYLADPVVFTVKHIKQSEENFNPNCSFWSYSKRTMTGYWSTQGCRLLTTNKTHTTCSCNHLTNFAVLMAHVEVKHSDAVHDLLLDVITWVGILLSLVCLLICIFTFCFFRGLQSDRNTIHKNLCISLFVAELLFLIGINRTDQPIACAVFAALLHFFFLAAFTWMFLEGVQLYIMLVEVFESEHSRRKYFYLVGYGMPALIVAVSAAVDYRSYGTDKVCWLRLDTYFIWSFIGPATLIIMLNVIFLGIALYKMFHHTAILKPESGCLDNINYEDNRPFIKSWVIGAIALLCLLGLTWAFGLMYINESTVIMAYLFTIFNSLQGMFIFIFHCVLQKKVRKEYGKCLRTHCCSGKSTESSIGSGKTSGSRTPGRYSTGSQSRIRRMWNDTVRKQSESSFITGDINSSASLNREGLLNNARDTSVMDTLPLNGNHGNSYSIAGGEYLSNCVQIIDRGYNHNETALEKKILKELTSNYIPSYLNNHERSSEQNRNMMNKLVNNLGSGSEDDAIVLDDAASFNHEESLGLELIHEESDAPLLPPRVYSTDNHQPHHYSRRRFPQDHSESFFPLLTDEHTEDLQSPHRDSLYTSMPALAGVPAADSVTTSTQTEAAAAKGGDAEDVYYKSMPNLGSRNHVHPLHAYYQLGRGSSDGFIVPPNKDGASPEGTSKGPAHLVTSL
Chain of FLRT2 on K-562 cells (Q8BLU0 36-660): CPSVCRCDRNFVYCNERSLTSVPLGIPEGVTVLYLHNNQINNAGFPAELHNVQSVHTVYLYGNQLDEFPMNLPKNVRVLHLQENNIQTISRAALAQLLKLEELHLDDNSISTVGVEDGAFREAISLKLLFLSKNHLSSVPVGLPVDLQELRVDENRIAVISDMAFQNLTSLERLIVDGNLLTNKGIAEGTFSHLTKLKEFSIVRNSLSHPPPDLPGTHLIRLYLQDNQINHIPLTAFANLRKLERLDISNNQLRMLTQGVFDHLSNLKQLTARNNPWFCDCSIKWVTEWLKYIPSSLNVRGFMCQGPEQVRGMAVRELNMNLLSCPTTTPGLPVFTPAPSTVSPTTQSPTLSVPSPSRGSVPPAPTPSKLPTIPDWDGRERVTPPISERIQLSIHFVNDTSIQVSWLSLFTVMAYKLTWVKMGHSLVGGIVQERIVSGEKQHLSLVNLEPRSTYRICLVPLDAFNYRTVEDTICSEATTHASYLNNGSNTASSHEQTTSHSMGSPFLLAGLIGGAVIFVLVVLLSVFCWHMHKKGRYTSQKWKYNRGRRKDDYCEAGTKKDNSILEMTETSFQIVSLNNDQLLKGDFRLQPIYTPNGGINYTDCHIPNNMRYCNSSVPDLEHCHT

- other: aggregation (%) [1]: 5%
- other: aggregation (%) [2]: 68%
Molecule: Lphn1 on K-562 cells (from UniProt Q80TR1) E39N

- other: aggregation (%) [3]: 5%
Molecule: Ten2 on K-562 cells (from UniProt Q9DER5) 1892N; K1894T

- response [4]: 2%
- response [5]: 0%
Molecule: chicken Ten2, transmembrane construct at the surface of HEK293 cells (from UniProt Q9DER5) 1892N; K1894T

- Kd [6]: 40 nM
- Kd [7]: 60 nM
- Kd [8]: 680 nM
Molecule: chicken Teneurin 2 ectodomain (gTen2 ecto) (from UniProt Q9DER5 429-2802) (domain or fragment)

- response [9]: 0%
- response ([10]; surface murine Lphn1TL, soluble His-tagged chicken Ten2 (ecto)): 0%
Molecule: murine Lphn1 (mVenus-tagged, surface of HEK293 cells) E39N

- response ([10]; surface murine Lphn1TL2, soluble His-tagged chicken Ten2 (ecto)): 1.5%
Molecule: murine Lphn1 (mVenus-tagged, surface of HEK293 cells) L39A; P51G; D54A; D67A; D72A

- Kd [6]: 35 nM
- Kd [7]: 100 nM
- Kd [8]: 490 nM
Molecule: murine Teneurin 2 ectodomain (mTen2 ecto) (from UniProt Q9WTS5 401-2764) (domain or fragment)

- Kd [11]: 590 nM
- Kd [12]: 290 nM
B1: murine Latrophilin 1 Lec-Olf domains (mLphn1 Lec-Olf) (domain or fragment, mouse, UniProt Q80TR1 29-395, looked up)
chain: GLPFGLMRRELACEGYPIELRCPGSDVIMVENANYGRTDDKICDADPFQMENVQCYLPDAFKIMSQRCNNRTQCVVVAGSDAFPDPCPGTYKYLEVQYDCVPYIFVCPGTLQKVLEPTSTHESEHQSGAWCKDPLQAGDRIYVMPWIPYRTDTLTEYASWEDYVAARHTTTYRLPNRVDGTGFVVYDGAVFYNKERTRNIVKYDLRTRIKSGETVINTANYHDTSPYRWGGKTDIDLAVDENGLWVIYATEGNNGRLVVSQLNPYTLRFEGTWETGYDKRSASNAFMVCGVLYVLRSVYVDDDSEAAGNRVDYAFNTNANREEPVSLAFPNPYQFVSSVDYNPRDNQLYVWNNYFVVRYSLEFGPPD
modifications: biotinylated enzymatically at the C-terminal Avi-tag
notes: The limits 29-395 are printed for the Lec-Olf construct that was crystallised; source: HEK293 cells; biotinylated enzymatically; not shown: Avi-tag, C-terminal, kept
